The record followed here is PMC8062489, “Tgf-β1 transcriptionally promotes 90K expression: possible implications for cancer progression”.

This data set deals with rUSF1 (recombinant His-USF1) (UniProt P22415 1-310). Kind of data set: EMSA; 20 mM HEPES (pH not stated), 0.1% NP40, 5 mM MgCl2, 50 mM KCl, 2% glycerol, 2 mM DTT, 50 ng/ml poly(dI-dC), room temperature, 20 ul, 5 ug nuclear extract; 5% native PAGE in 1x TBE. The settings on record: protein: recombinant; tags: N-terminal His-tag; chain copies: 2; label: 5'-32P as probe; blunt.
Sequence of rUSF1 (recombinant His-USF1) (P22415 whole entry): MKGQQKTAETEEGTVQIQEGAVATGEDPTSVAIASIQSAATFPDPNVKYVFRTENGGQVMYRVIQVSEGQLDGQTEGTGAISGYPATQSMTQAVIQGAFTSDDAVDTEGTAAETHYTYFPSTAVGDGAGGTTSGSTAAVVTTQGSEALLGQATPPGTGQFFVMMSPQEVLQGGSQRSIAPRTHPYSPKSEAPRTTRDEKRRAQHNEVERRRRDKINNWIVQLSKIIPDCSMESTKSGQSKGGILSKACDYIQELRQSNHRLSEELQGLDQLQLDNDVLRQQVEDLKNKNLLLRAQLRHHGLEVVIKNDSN

B1: EWT (E, consensus E-box) (dsDNA)
DNA 1: GGAAGCAGACCACGTGGTCTGCTT
DNA 2: AAGCAGACCACGTGGTCTGCTTCC
For the molecule B1, the binding result was “binds”.

B2: Oligo I (dsDNA)
DNA 1: GCAGCCTCCGTCATGTGTTTTCTGGA
DNA 2: TCCAGAAAACACATGACGGAGGCTGC
For B2, the binding result is “binds”.
